The experiment addresses T1, N-terminal Protein-A tagged Esc2 (WT) (S. cerevisiae, UniProt Q06340 1-456).
T1 construct: Esc2, S. cerevisiae, protein with two SUMO-like domains (SLD1, SLD2); details of plasmid construction are available upon request; also called WT Esc2; ScEsc2; source: bacteria (BL21 cells), purified with IgG sepharose resin; not shown: Protein A, N-terminal, kept
T1 sequence (looked up): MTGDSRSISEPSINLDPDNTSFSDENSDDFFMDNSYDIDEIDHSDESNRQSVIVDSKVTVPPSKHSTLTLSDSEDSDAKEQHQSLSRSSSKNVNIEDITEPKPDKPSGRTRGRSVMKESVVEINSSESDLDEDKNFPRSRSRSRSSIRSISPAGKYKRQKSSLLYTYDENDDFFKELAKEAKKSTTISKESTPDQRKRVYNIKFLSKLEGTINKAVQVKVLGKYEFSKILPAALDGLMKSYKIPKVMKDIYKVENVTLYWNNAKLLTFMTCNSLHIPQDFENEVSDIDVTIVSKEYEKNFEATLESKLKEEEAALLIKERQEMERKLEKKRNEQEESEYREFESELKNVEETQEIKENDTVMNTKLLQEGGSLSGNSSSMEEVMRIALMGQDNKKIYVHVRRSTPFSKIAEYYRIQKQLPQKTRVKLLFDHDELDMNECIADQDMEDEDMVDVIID
Briefly: pull-down; 40 ug Protein-A-Esc2 (WT or D430R) bound to 20 uL IgG resin, incubated with 100 ug purified Ubc9 in 200 uL for 2 hours on ice; washed 5 times with PBS with 0.2% NP-40; bound Ubc9 eluted and seen by Coomassie staining. Conditions: both partners purified.

B1: C-terminal 6xHIS tagged Ubc9 (enzyme, S. cerevisiae, UniProt P50623 1-157, looked up)
chain: MSSLCLQRLQEERKKWRKDHPFGFYAKPVKKADGSMDLQKWEAGIPGKEGTNWAGGVYPITVEYPNEYPSKPPKVKFPAGFYHPNVYPSGTICLSILNEDQDWRPAITLKQIVLGVQDLLDSPNPNSPAQEPAWRSFSRNKAEYDKKVLLQAKQYSK
notes: Ubc9, SUMO E2 conjugating enzyme, S. cerevisiae; also called Ubc9 SUMO conjugating enzyme; E2
For B1, the binding result was “binds”.

(Values after paper PMC7891725, “Shared and distinct roles of Esc2 and Mms21 in suppressing genome rearrangements and regulating intracellular sumoylation” (PLoS ONE, 2021).)
